# Earlier results as cited in paper PMC3824636.
# How the values were obtained:
# [1] = molecular target: Cys149 (UniProt position 156, VSNASCTTNCL); test: chemical modification or UV-vis (listed collectively, not mapped to individual values); details: not stated (apo or holo not specified)
# [2] = molecular target: Cys149 (UniProt position 150, VSNASCTTNCL); test: as above; details: not stated (apo or holo not specified)
# [3] = molecular target: Cys149 (UniProt position 152, ISNASCTTNCL); test: as above; details: not stated (apo or holo not specified)
# [4] = tested on: Cys302; test: chemical modification (described only as 'titration of Cys-302')
substance,measurement,setting,value
Cytoplasmic glyceraldehyde-3-phosphate dehydrogenase GAPC1 (Arabidopsis thaliana),pKa,[1],5.7
Glyceraldehyde-3-phosphate dehydrogenase (GAPDH) (Escherichia coli),pKa,[2],~5.7
Glyceraldehyde-3-phosphate dehydrogenase (GAPDH) (Geobacillus stearothermophilus (Bacillus stearothermophilus)),pKa,[3],5.9
"Glyceraldehyde-3-phosphate dehydrogenase (GAPDH), pig liver as stated (Sus scrofa)",pKa,[2],5.5
Non-phosphorylating NADP-dependent glyceraldehyde-3-phosphate dehydrogenase (GAPN) (Streptococcus mutans),pKa,[4]; NADP+-bound (holo-enzyme),6.1
same,pKa,[4]; apo-enzyme (no cofactor),8.5
